From patent EP0980526B1, “INHIBITORS OF NUCLEAR PROTEIN/NUCLEAR RECEPTOR INTERACTION” (IMPERIAL CANCER RESEARCH TECHNOLOGY LIMITED, priority 1997, dated 1998) come the findings set out here.

The target of assay [1] is AAD-ER (acidic activation domain fused to the LBD of the wild-type ER) (human) (UniProt P03372). Briefly: cell-based or functional assay.
Assay [2] shares this target. Briefly: yeast two-hybrid.
The target of assay [3] is mouse ER (expressed in transfected Hela cells) (mouse) (UniProt P19785). Briefly: cell-based or functional assay.
mouse ER (expressed in transfected Hela cells) (mouse), sequence (P19785 whole entry): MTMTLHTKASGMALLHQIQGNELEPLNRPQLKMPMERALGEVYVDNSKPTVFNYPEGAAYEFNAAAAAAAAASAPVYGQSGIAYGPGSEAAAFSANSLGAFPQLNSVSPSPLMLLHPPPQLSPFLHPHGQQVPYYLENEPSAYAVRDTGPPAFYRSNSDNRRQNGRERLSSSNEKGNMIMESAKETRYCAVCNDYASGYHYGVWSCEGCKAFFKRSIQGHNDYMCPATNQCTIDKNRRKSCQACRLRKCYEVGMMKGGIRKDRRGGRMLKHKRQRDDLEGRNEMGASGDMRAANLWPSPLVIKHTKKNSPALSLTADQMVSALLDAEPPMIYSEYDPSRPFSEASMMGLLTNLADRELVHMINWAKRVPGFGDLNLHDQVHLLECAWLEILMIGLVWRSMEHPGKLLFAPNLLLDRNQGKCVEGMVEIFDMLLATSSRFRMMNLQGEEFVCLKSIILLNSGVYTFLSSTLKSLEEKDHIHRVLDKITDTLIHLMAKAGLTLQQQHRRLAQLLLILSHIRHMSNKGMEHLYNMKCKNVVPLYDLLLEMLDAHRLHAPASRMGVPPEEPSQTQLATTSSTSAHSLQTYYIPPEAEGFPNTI

AAD-ER (acidic activation domain fused to the LBD of the wild-type ER) (human), sequence (P03372 282-595 limits assumed): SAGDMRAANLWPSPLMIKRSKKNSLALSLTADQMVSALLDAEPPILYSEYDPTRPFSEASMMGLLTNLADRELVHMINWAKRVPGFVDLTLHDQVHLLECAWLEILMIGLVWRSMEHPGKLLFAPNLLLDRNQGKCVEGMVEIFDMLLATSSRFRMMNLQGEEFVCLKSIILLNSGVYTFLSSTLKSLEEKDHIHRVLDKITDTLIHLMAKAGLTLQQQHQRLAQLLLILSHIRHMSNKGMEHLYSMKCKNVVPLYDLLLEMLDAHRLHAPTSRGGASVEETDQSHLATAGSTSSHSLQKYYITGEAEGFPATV
DBD-SRC1a 45-53, sequence (P03372 176-282, form in doubt): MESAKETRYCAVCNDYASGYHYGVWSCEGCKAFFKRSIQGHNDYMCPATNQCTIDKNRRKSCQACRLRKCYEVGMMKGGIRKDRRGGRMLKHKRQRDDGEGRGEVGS

Turning to “DBD-RIP140 935-943 with valine 935 mutated to alanine (from UniProt P03372 176-282; P48552 935-943)”, the reporter activity in the presence of ligand (β-galactosidase, yeast two hybrid) (fold reduction) in assay [1] came to 10.

The substance “DBD-SRC1a 45-53 (from UniProt P03372 176-282)” gave a fold interaction (two-hybrid reporter) in assay [2] of 6 fold.

As to SRC1e M123 (from UniProt Q15788 1-1399), the activity of ER on the reporter 2ERE-pS2-CAT in transiently transfected Hela cells in assay [3] was under 50%.
